Laboratory results reported in PMC8465315, “Molecular Umbrella as a Nanocarrier for Antifungals” (Molecules, 2021).
Read-outs that look alike come from different tables or passages of the source.

Legend:
Candida spp. = experiment: Antifungal in vitro activity, summary statements over the Candida strains tested; format: cell-based
Description: The antifungal in vitro activity of conjugates 24a–d and 35 was determined by the serial two-fold dilution method, using the 96-well microtiter plates, in two growth media, RPMI-1640 and YNB-AS, against seven yeast species from the Candida genus. The MIC50 and MIC90 values, i.e., concentrations at which cell growth was inhibited in 50% and 90%, respectively, were measured and compared to those of the intact cispentacin. The concentration values presented in Table 1 and Table 2 are expressed in mM units to allow the comparison of the compounds’ effectiveness at the molecular level. For data expressed in μg mL^−1 units, such comparison is not possible, since the molecular masses of conjugates (≈1755–2114 D range) are 14–16-fold higher than that of cispentacin (128.3 D).
Susceptibility testing was performed in two growth media: (a) RPMI-1640 w/o sodium bicarbonate, with L-glutamine + 2% glucose + 3.45% MOPS, pH adjusted to 7.0; (b) YNB-AS—Yeast Nitrogen Base w/o amino acids (contains ammonium sulfate 5 g L^−1) + 2% glucose. The in vitro growth inhibitory activity of antifungals was quantified by determination of MIC50 and MIC90 values by the serial two-fold dilution method, using the 96-well microtiter plates. Serial dilutions of cispentacin and its conjugates were prepared in the 4–0.015 mM range.
Conditions of the RPMI-1640-based assay were the same as outlined in the CLSI recommendations except for the end-point readout that was done by spectrophotometric determination of cell density at 660 nm. Turbidity in individual wells was measured with a microplate reader (Victor^3; Perkin Elmer). The 96-well microtiter plates were also used for the determination of in vitro growth inhibitory activity in YNB-AS medium. Individual wells were inoculated with 5 × 10^3 Candida cells mL^−1 from the overnight culture in YPD medium. The plates were incubated at 37 °C for 24 h, and then, turbidity was measured with a microplate reader at 660 nm, as described above for the RPMI-1640-based assay.
Values of MIC50 and MIC90 were read from the graphs of A660 vs. drug concentration and corresponded to the interpolated values of drug concentration at which A660 was 50% or 10% of that measured for the drug-free control.

pig liver esterase = experiment: HPLC-MS analysis of conjugate cleavage, model system with pig liver esterase; format: in vitro ADME; details: pig liver esterase 5 mg mL^−1; conjugate 150 µM; 30 °C; 0, 30, 120 min
Description: (§1) Conjugates 24a–d, containing the TML system, were tested for susceptibility to enzymatic cleavage in the model system with pig liver esterase and in cell-free extract prepared from C. albicans cells. Conjugate 35 containing the o-dithiobenzylcarbamoyl linker was tested in the model system with glutathione and in C. albicans cell-free extract.
(§2) Analysis of cleavage of the conjugates was performed in two experimental systems: (A) model system, in the presence of pig liver esterase or glutathione, reduced; (B) in C. albicans cell-free extract.
Mixtures containing a given conjugate at the initial concentration of 150 µM and pig liver esterase, 5 mg mL^−1 or 10 mM glutathione, reduced, in a total volume of 200 μL were incubated at 30 °C. Samples of 50 μL were collected at zero time, after 30 min, and after 120 min and subjected to HPLC-MS analysis.
(§3) The HPLC-MS system consisted of a liquid chromatograph, a degasser, a binary pomp, an auto-sampler, and a column oven, which was combined with an MS detector with an electrospray source (AJS ESI) and quadrupole analyzer (1260 Infinity II and 6470 Triple Quad LC/MS, Agilent Technologies, Waldbronn, Germany). The ChemStation software was used to control the LC-MS system and for data processing.
(§4) Chromatographic separations were performed on an Eclipse XDB-C18 column (150 mm × 4.6 mm, 5 μm). For the separation, a gradient of mobile phase A (H2O + 0.01% HCOOH) and mobile phase B (100% methanol) was used. The gradient profile was set as follows: 0 min—95% effluent A, 8 min—70% effluent A, 11 min—50% effluent A, 12 min—95% effluent A, 17 min—95% effluent A. The flow rate was 1 mL min^−1, the column temperature was 25 °C, and the injection volume was 20 μL.
(§5) The electrospray source operated in a negative mode. The data were collected in a MS scanning mode (MS2 SCAN) with the range 150–700 (m/z).

[1] = test system: C. albicans cell-free extract; format: in vitro ADME, Candida albicans; details: conjugate 150 µM, 30 °C, 0, 30, 120 min
Description: as §1
C. albicans cells were harvested from the culture in YPD medium in the logarithmic phase of growth and washed with PBS, pH 7.4. Then, cells were suspended in a minimal amount of PBS to an optical density OD660 ≈ 1.5. A sample of 1.5 mL of the cell suspension was put into the Lysing Matrix D, 2 mL tubes containing 1.4 mm ceramic spheres (MP Biomedicals). The tubes were vortexed 5 times for 2 min intervals, with 2 min breaks for cooling in the ice/water bath. Finally, the mixtures were centrifuged (10,000× g, 4 °C, 20 min), and the supernatant was pushed through the syringe filter, 0.22 μm pore size, to remove unbroken cells. The thus-obtained cell-free extract was kept at 4 °C and used no later than 5 h after preparation.
as §2
A given conjugate was dissolved in 4 mL of C. albicans cell-free extract to the initial concentration of 150 µM. Mixtures were incubated at 30 °C. Samples of 1 mL were collected at zero time, after 30 min, and after 120 min. The collected samples were immediately de-proteinized by centrifugation (4 °C, 5000× g, 10 min) in Amicon® Ultra-4 Centrifugal Filter Units, 3 kDa cutoff limit. Samples of 50 μL were collected from the filtrates and subjected to HPLC-MS analysis.
as §3, §4, §5

Structure (SMILES)	antifungal activity (Candida spp.; RPMI-1640 medium)	cleavage / release of cispentacin (HPLC-MS) (pig liver esterase)	cleavage / release of cispentacin or its derivative (HPLC-MS) [1]	antifungal activity (Candida spp.; both growth media (RPMI-1640 and YNB-AS))	antifungal activity (Candida spp.; both growth media (RPMI-1640 and YNB-AS), listed as 26d)	cleavage / release of cispentacin or its derivative (HPLC-MS) ([1]; listed as 26d)
Cc1cc(C)c(C(C)(C)CC(=O)N[C@H]2CCC[C@H]2C(=O)O)c(OC(=O)CCC(=O)N(CCCCNC(=O)CC[C@@H](C)[C@H]2CC[C@H]3[C@@H]4[C@H](OS(=O)(=O)O)C[C@@H]5C[C@H](OS(=O)(=O)O)CC[C@]5(C)[C@H]4C[C@H](OS(=O)(=O)O)[C@]23C)CCCNC(=O)CC[C@@H](C)[C@H]2CC[C@H]3[C@@H]4[C@H](OS(=O)(=O)O)C[C@@H]5C[C@H](OS(=O)(=O)O)CC[C@]5(C)[C@H]4C[C@H](OS(=O)(=O)O)[C@]23C)c1 [24b]	devoid of antifungal activity	resistant to enzymatic cleavage	Neither cispentacin nor the m/z 145.1/145.2 compound was found			
Cc1cc(C)c(C(C)(C)CC(=O)N[C@H]2CCC[C@H]2C(=O)O)c(OC(=O)CCC(=O)N(CCCCNC(=O)CC[C@@H](C)[C@H]2CC[C@H]3[C@@H]4CC[C@@H]5C[C@H](OS(=O)(=O)O)CC[C@]5(C)[C@H]4C[C@H](OS(=O)(=O)O)[C@]23C)CCCNC(=O)CC[C@@H](C)[C@H]2CC[C@H]3[C@@H]4CC[C@@H]5C[C@H](OS(=O)(=O)O)CC[C@]5(C)[C@H]4C[C@H](OS(=O)(=O)O)[C@]23C)c1 [24a]	devoid of antifungal activity	resistant to enzymatic cleavage	Neither cispentacin nor the m/z 145.1/145.2 compound was found			
Cc1cc(C)c(C(C)(C)CC(=O)N[C@H]2CCC[C@H]2C(=O)O)c(OC(=O)CCCCCCC(=O)N(CCCCNC(=O)CC[C@@H](C)[C@H]2CC[C@H]3[C@@H]4[C@H](OS(=O)(=O)O)C[C@@H]5C[C@H](OS(=O)(=O)O)CC[C@]5(C)[C@H]4C[C@H](OS(=O)(=O)O)[C@]23C)CCCNC(=O)CC[C@@H](C)[C@H]2CC[C@H]3[C@@H]4[C@H](OS(=O)(=O)O)C[C@@H]5C[C@H](OS(=O)(=O)O)CC[C@]5(C)[C@H]4C[C@H](OS(=O)(=O)O)[C@]23C)c1 [24d]	devoid of antifungal activity	Presence of the released cispentacin was confirmed	the product of a possible cleavage, with RT similar to that of cispentacin but with 17 D higher MW, was formed	inactive in both media	not active as an antifungal	found cleavable in the cell-free extract
Cc1cc(C)c(C(C)(C)CC(=O)N[C@H]2CCC[C@H]2C(=O)O)c(OC(=O)CCCCCC(=O)N(CCCCNC(=O)CC[C@@H](C)[C@H]2CC[C@H]3[C@@H]4[C@H](OS(=O)(=O)O)C[C@@H]5C[C@H](OS(=O)(=O)O)CC[C@]5(C)[C@H]4C[C@H](OS(=O)(=O)O)[C@]23C)CCCNC(=O)CC[C@@H](C)[C@H]2CC[C@H]3[C@@H]4[C@H](OS(=O)(=O)O)C[C@@H]5C[C@H](OS(=O)(=O)O)CC[C@]5(C)[C@H]4C[C@H](OS(=O)(=O)O)[C@]23C)c1 [24c]		Presence of the released cispentacin was confirmed	the product of a possible cleavage, with RT similar to that of cispentacin but with 17 D higher MW, was formed			
